The text below walks through data of patent US20150361165A1 (SYDDANSK UNIVERSITET, published 2015).

In experiment [1] the target is T1, human MFAP4 in tissue (human mammary artery) (human, UniProt P55083 22-255).
T1 construct: Native protein detected by immunohistochemistry
T1 sequence (looked up): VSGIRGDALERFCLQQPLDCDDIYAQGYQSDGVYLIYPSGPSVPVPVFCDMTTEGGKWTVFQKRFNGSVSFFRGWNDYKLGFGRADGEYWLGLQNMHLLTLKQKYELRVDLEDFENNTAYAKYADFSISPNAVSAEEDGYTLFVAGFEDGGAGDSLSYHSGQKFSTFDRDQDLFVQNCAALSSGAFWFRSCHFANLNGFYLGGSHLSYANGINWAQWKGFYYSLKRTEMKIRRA
Description: immunohistochemistry on human mammary artery.

In experiment [2] the target is T2, mouse MFAP4 in tissue (mouse aorta) (mouse, UniProt Q9D1H9 23-257).
T2 construct: Native protein detected by immunohistochemistry; signal absent in mfap4-/- tissue; also called mouse MFAP4 homologue
T2 sequence (looked up): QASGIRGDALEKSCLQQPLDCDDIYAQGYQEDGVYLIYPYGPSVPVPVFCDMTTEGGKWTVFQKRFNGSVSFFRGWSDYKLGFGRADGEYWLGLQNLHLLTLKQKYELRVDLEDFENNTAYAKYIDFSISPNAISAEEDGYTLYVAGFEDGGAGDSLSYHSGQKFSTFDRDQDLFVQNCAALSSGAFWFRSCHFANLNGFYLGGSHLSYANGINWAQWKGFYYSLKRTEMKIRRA
Description: immunohistochemistry on mouse aorta; no signal in mfap4-/- tissue.

B1: HG-HYB 7-14 (antibody, V domains shown)
VH: EVKVVESGGGLVQPGGSLRLSCATSGFTFSDFYMEWVRQPPGKRLEWIAASRNKANDYTTEYSASVKGRFIVSRDTSQSILYLQLNALRAEDTAIYYCARNYYDSSYWYFDVWGAGTTVTVSS
VL: DIVLTQSPSYLAASPGETITINCRASKSISKYLAWYQERPGKTNKLLIYSGSTLQSGIPSRFSGSGSGTDFTLTISSLEPEDFAMYYCQQHNEYPFTFGAGTKLELK
notes: Monoclonal antibody raised in MFAP4-deficient C57BL/6N mice against rMFAP4; also called FITC-anti-MFAP4 (HG-HYB 7-14)
Take B1: the binding result in experiment [1] and in experiment [2] was “binds” in each case.
